{"source": "the nanobody polyreactivity screen of Harvey et al. (2022)"}
{"experiment": "yeast display, Sf9 membrane polyspecificity reagent, FACS + sequencing; frameworks hold sequencing errors", "in_short": "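Galactose induction of a Saccharomyces cerevisiae BJ5465 synthetic nanobody display library ran 36–48 hours. The cells were then stained for 1 hour at 4 °C with 10% biotinylated, detergent-solubilized Sf9 membrane reagent, pulled down on streptavidin microbeads and FACS-sorted into low and high (top ~1%) gates on expression and reagent-binding fluorescence. Labels for polyreactivity follow the gate of origin.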"}
{"sequence": "QVQLVESGGGLVQAGGSLRLSCAASGFIFVVYAMGWYRQAPGKERELVAAITNGGITYYADSVKGRFTISRDNAKNTVYLQMHSLKPEDTADYYCNAQYTDYDGYVGYYYWGEGTQVTVSS", "polyreactivity (PSR sort gate)": "low polyreactivity"}
{"sequence": "QVQLVESGGGLVQAGGSLRLSCAASGFIFVVYTMGGYRQEPGKVRELVAAITSGGSTYYADSVKGRFTISRDNAKNTVYLQMNSLKPEDTAVYYCNALASRYQAYYYWGQGTQVTVSS", "polyreactivity (PSR sort gate)": "low polyreactivity"}
{"sequence": "QVQLVESGGGLVQAGGSLRLSCAASGFIFVWYAMGWYRQAPGKERELVAAISWSGGNTYYADSVKGRFTISRDNAKNTVYLQMNSLKPEDTAVYYCNVVYFDGNPEDYDYWGQGTQVTVSS", "polyreactivity (PSR sort gate)": "high polyreactivity"}
{"sequence": "QVQLVESGGGLVQAGGSLRLSCAASGFIFVYNDMGWYRQAPGKERELVAAISTSGGSTYYADSVKGRFTISRDNAKNTVYLQMNSLKPEDTAVYYCAAGPSYYPFFWPDFEYWGQGTQVTVSS", "polyreactivity (PSR sort gate)": "high polyreactivity"}
{"sequence": "QVQLVESGGGLVQAGGSLRLSCAASGFIFVYYAMGWYRQAPGKERELVAAISSRGGSTYYADSVKRRFTISRDNAKNTVYLQMNSLKPEDTAVYYCAARPSSRRYGTIMDYWGQGTQVTVSS", "polyreactivity (PSR sort gate)": "high polyreactivity"}
{"sequence": "QVQLVESGGGLVQAGGSLRLSCAASGFIFVYYAMGWYRQAPGKERELVATISSSSASTYYADSVKGRFTISRDNAKNTVYLQMNSLKPEDTAVYYCAVLVSRYRYRVLDDSWGQGTQVTVSS", "polyreactivity (PSR sort gate)": "high polyreactivity"}
{"sequence": "QVQLVESGGGLVQAGGSLRLSCAASGFIFWEYAMGWYRQAPGKERELVAVISYRGGSTYYADSVKGRFTISRDNAKNTVYLQMNSLKPEDTAVYYCNADTIPDGEDRYDYWGQGTQVTVSS", "polyreactivity (PSR sort gate)": "low polyreactivity"}
{"sequence": "QVQLVESGGGLVQAGGSLRLSCAASGFIFWFYAMGWYRQAPGKERELVASISASGGSTNYADSVKGRFTISRDYAKKTVYLQMNSLKPEDTAVYYCAARKRYLRGYWGQGTQVTVSS", "polyreactivity (PSR sort gate)": "high polyreactivity"}
{"sequence": "QVQLVESGGGLVQAGGSLRLSCAASGFIFWIYAMGWYRQAPGKEREFVAVITYRGDTSYYADSVKGRFTISRDNAKNTVYLQMNSLKPEDTAVYYCAAYTVQKYGYWGQGTQVTVSS", "polyreactivity (PSR sort gate)": "low polyreactivity"}
{"sequence": "QVQLVESGGGLVQAGGSLRLSCAASGFIFWLYALGWYRKAPGKERELVASINWSGGDTYYADSVKGRFTISRDNPKNTVYLQLNSLKPEDTAVYYCNAQVYRYRIGYDYWGQGPQVTVSS", "polyreactivity (PSR sort gate)": "low polyreactivity"}
{"sequence": "QVQLVESGGGLVQAGGSLRLSCAASGFIFWRYAMGWYRQAPGKDRELVAAISSTGRTYYADSVKGRFTISRDNAKNTVYLQMNSLKPEDTAVYYCNAAPVYLADPTRKYKADYWGQGTQVTVSS", "polyreactivity (PSR sort gate)": "low polyreactivity"}
{"sequence": "QVQLVESGGGLVQAGGSLRLSCAASGFIFWRYAMGWYRQAPGKERELVAAITSGGRTNYADSVKGRFTISRDNAKNTVYLQMNSLKPEDTAVYYCAADRSWSPRAGWYDYWGQGTQVTVSS", "polyreactivity (PSR sort gate)": "high polyreactivity"}
{"sequence": "QVQLVESGGGLVQAGGSLRLSCAASGFIFWRYAMGWYRQAPGKERELVATITSSGGTTHYADSVKGRFTISRDNAKNTVYLQMNSLKPEDTAVYYCATRKGVGSLYYSRNYWGQGTQVTVSS", "polyreactivity (PSR sort gate)": "high polyreactivity"}
{"sequence": "QVQLVESGGGLVQAGGSLRLSCAASGFIFWRYTMGWYRQAPGKERELVAVISWRGDNTYADSVEGRFTISRDNAKNTVYLQMNSLKPEDTAVYYCGVYRYDYWGQGTQVTVSS", "polyreactivity (PSR sort gate)": "low polyreactivity"}
{"sequence": "QVQLVESGGGLVQAGGSLRLSCAASGFIFWSNAMGWYRQAPGKERELVAAINSSGGRTYYADSVKGRFTISRDNAKNTVYLQMNSLKPEDTAVYYCAARLHSPRYRYDYWGQGTQVTVSS", "polyreactivity (PSR sort gate)": "high polyreactivity"}
{"sequence": "QVQLVESGGGLVQAGGSLRLSCAASGFIFWTYAMGWYRQAPGKERELVAAITWSGTSTYYADSVKGRFTISRDNAKNTVYLQMNSLKPEDTAVYYCNALYYSRRVDYWGQGTQVTVSS", "polyreactivity (PSR sort gate)": "high polyreactivity"}
{"sequence": "QVQLVESGGGLVQAGGSLRLSCAASGFIFWYNAMGWYRPAPGKEREFVAAISSGGSTTYADSVKGRFTISRDNAKNTVYLQMNSLKPEDTAVYYCAAGSYDYDYWGQGTQVTVSS", "polyreactivity (PSR sort gate)": "low polyreactivity"}
{"sequence": "QVQLVESGGGLVQAGGSLRLSCAASGFIFWYYAMGWYRPAPGKERELVATITRGGSTYYADSVKGRFTISRDNAKNTVYLQLNSLKPEDTAVYYCNAVRPKIYDYWGQGTQVTLSS", "polyreactivity (PSR sort gate)": "high polyreactivity"}
{"sequence": "QVQLVESGGGLVQAGGSLRLSCAASGFIFWYYAMGWYRQAPGKERELVATITSGGSTTYADSVKGRFTISRDNAKNTVYLQMNSLKPEDTAVYYCAAKGISRYDWGQGTQVTVSS", "polyreactivity (PSR sort gate)": "low polyreactivity"}
{"sequence": "QVQLVESGGGLVQAGGSLRLSCAASGFIFYANAMGWYRQAPGKERELVAAITWSGSRTYYADSVKGRFTISRDNAKNTVYLQMNSLKPEDTAVYYCNKDWYVGSFGYPEDYWGQGTQVSVSS", "polyreactivity (PSR sort gate)": "low polyreactivity"}
{"sequence": "QVQLVESGGGLVQAGGSLRLSCAASGFIFYAYAMGWYRQAPGKERELVAAISYSGGSTYYADSVKGRFTISRDNAKNTVYLQMNSLKPEDTAVYYCNTVSYGYSSKLYDYWGQGTLVTVSS", "polyreactivity (PSR sort gate)": "high polyreactivity"}
{"sequence": "QVQLVESGGGLVQAGGSLRLSCAASGFIFYAYTMGWYRQAPGKERELVAAISRSGGRTYYADSVKGRFTISRDNAKNTVYLQMNSLKPEDTAVYYCAAEYRGVPRVVVDYDYWGQGTQVTVSS", "polyreactivity (PSR sort gate)": "high polyreactivity"}
{"sequence": "QVQLVESGGGLVQAGGSLRLSCAASGFIFYDNAMGWYRQAPGKERELVAAIDWSGDSTYYADSVKGRFTISRDNAKNTVYLQMNSLKPEDTAVYYCAADSQDPGDYYLFDYWGQGTQVTVSS", "polyreactivity (PSR sort gate)": "low polyreactivity"}
{"sequence": "QVQLVESGGGLVQAGGSLRLSCAASGFIFYDYAMGWYRQAPGKERELVAAIRSSDGGTYYADSEKGPFTISRDNAKNTVYLQMNSLKPEDTAVDYCAAEIRWGWHPYYDYDEYWGQGTLVTVSS", "polyreactivity (PSR sort gate)": "low polyreactivity"}
{"sequence": "QVQLVESGGGLVQAGGSLRLSCAASGFIFYDYDMGWYRQAPGKEREFVAAITYSGGSTYYADSVKGRFTISRDNAKNTVYLQMNCLKPEDTAFYYCADVKSRYAEAVDYFYWGQGTHVTVSS", "polyreactivity (PSR sort gate)": "low polyreactivity"}
{"sequence": "QVQLVESGGGLVQAGGSLRLSCAASGFIFYHYAMGWYRQAPGKERELVAAISGRGGSTYYADSVKGRFTISRDNAKNTVYLQMNSLKPEDTAVYYCATDYSRTFDYWGQGTQVTVSS", "polyreactivity (PSR sort gate)": "high polyreactivity"}
{"sequence": "QVQLVESGGGLVQAGGSLRLSCAASGFIFYKNAMGWYRQAPGKERQLVAAINFSTGRTYYADSVKGRFTISRDNAKNTVYLQMNSLKPEDTAVYYCASKSANPRKYYYWGQGTQVTVSS", "polyreactivity (PSR sort gate)": "high polyreactivity"}
{"sequence": "QVQLVESGGGLVQAGGSLRLSCAASGFIFYKYAMGWYRQAPGKERELVAAISKRGGSTYYADSVKGRFTISRDNAKNTVYLQMNSLKPEDNAVYYCATVGGNSGTVRYFASDYWGQGTKVTVSS", "polyreactivity (PSR sort gate)": "high polyreactivity"}
{"sequence": "QVQLVESGGGLVQAGGSLRLSCAASGFIFYKYAMGWYRQAPGKERELVAAISRGGTTTYADSVKGRFTISRDNAKNTVYLQMNSLKPEDTAVYYCNKYFRYRYDYWGQGTQVTVSS", "polyreactivity (PSR sort gate)": "high polyreactivity"}
{"sequence": "QVQLVESGGGLVQAGGSLRLSCAASGFIFYKYAMGWYRQAPGKERELVAAITRRGGSTYYADSVKGRFTISRDNAKNTVYLQMNSLKPEDTAVYYCAKYIYGYKDSPLGDDYWGQGTQVTVSS", "polyreactivity (PSR sort gate)": "high polyreactivity"}
{"sequence": "QVQLVESGGGLVQAGGSLRLSCAASGFIFYKYAMGWYRQAPRKEREFVASISGSGGRTYYADSVKGRFTISRDNAKNTVYLQMNSLKPEDTAVYYCAVDLLRRGFPTVVTTYDYWGQGTQVTVSS", "polyreactivity (PSR sort gate)": "high polyreactivity"}
{"sequence": "QVQLVESGGGLVQAGGSLRLSCAASGFIFYLYAMGWYRQAPGKEMELVAAISWGGGTTYYADSVKGRFTISRDNAKNTVYLKMNSLKPEDTAVYYCAAETEYYSYRFDYWGQGTQVTVSS", "polyreactivity (PSR sort gate)": "high polyreactivity"}
{"sequence": "QVQLVESGGGLVQAGGSLRLSCAASGFIFYNYAMGWSRQAPGKERELVAAITGGGSTNYADSVKGRFTISRDNAKTTVYLQMNSLKPEDTAVYYCAAEEGPPWSRYDYWGQGTQVTVSS", "polyreactivity (PSR sort gate)": "low polyreactivity"}
{"sequence": "QVQLVESGGGLVQAGGSLRLSCAASGFIFYNYAMGWYRQAPGKERELVAAISASGGRTYYADSVKGRFTISRDNAKNTVYLQMHRLKPEDTAVYYCIARVKYKGYDYWGQGTQVTVSS", "polyreactivity (PSR sort gate)": "high polyreactivity"}
{"sequence": "QVQLVESGGGLVQAGGSLRLSCAASGFIFYPNAMGWYRQAPGKERELVAAISSSTGSTYYADSVKGRFTISRDNAKNTVYLQMNSLNRVDTAGYYCAADLEYYPIGGDLQEREYWGQGTQVTVSS", "polyreactivity (PSR sort gate)": "low polyreactivity"}
{"sequence": "QVQLVESGGGLVQAGGSLRLSCAASGFIFYRDAMGWYRPAPGKERELVAAISSRGVSTYYADSVKGRFTISRDNAKNTVYLLMNSLKPEDTAVYSCARISRYYALYDYWGQGTQVTVSS", "polyreactivity (PSR sort gate)": "high polyreactivity"}
{"sequence": "QVQLVESGGGLVQAGGSLRLSCAASGFIFYRNTMGWYRQAPGKEREFVAAIRWRGGSSYYADSVKGRFTISRDNAKNTVYLQMNSLKPEDTAVYYCAADTRPGYSGFEYWGQGTQVTVSS", "polyreactivity (PSR sort gate)": "high polyreactivity"}
{"sequence": "QVQLVESGGGLVQAGGSLRLSCAASGFIFYRNTMGWYRQAPGKEREFVAAIRWRGGSTYYADSVKGRFTISRDNAKNTFYLQLNSVKPEDTAVYYCAADTRPGYSGFEYWGQGTQVTVSS", "polyreactivity (PSR sort gate)": "high polyreactivity"}
{"sequence": "QVQLVESGGGLVQAGGSLRLSCAASGFIFYRYAMGWSRQAPGKERELVAAISYRGGSTYYADSVKGRFTISRDIAKNTVYLQMNSLKAEDTAFYYCAAPGLYSRLDYWGQGTQVTVSS", "polyreactivity (PSR sort gate)": "high polyreactivity"}
{"sequence": "QVQLVESGGGLVQAGGSLRLSCAASGFIFYRYAMGWYRQAPGKEREFVAVISRSGDRTNYADSVKGRFTISRDNAKNTVYLQMNSLKPEDTAVYYCNTDSRSAHGYWGQGTQVTVSS", "polyreactivity (PSR sort gate)": "high polyreactivity"}
{"sequence": "QVQLVESGGGLVQAGGSLRLSCAASGFIFYRYAMGWYRQAPGKERELVAAISRGDSTYYADSVKGRFTISRDNAKNTVYLQMNSLKPEDTAVYYCNADRPRYTYRATTYTGRYDYWGQGTQVTVSS", "polyreactivity (PSR sort gate)": "low polyreactivity"}
{"sequence": "QVQLVESGGGLVQAGGSLRLSCAASGFIFYRYAMGWYRQAPGKERELVAAISRSGGSTYYADSVKGRFTISRDNAKNTVYLQMNSLKPEDTAVYYCAADRGSLAPGNDYWGQGNQVTVSS", "polyreactivity (PSR sort gate)": "high polyreactivity"}
{"sequence": "QVQLVESGGGLVQAGGSLRLSCAASGFIFYRYAMGWYRQAPGKERELVAAISSSGGSTYYADSVKGRFTISRDNAKNTVYLQMNSLKPEDTAVYYCNKRPQQYSPGYDYWGQGTQVTVSS", "polyreactivity (PSR sort gate)": "high polyreactivity"}
